Target: Cell membrane human LILRB2 on human primary monocytes from healthy donors (human, UniProt Q8N423 22-597)
Assay: cell-based or functional assay

Cell membrane human LILRB2 on human primary monocytes from healthy donors, sequence (Q8N423 22-597): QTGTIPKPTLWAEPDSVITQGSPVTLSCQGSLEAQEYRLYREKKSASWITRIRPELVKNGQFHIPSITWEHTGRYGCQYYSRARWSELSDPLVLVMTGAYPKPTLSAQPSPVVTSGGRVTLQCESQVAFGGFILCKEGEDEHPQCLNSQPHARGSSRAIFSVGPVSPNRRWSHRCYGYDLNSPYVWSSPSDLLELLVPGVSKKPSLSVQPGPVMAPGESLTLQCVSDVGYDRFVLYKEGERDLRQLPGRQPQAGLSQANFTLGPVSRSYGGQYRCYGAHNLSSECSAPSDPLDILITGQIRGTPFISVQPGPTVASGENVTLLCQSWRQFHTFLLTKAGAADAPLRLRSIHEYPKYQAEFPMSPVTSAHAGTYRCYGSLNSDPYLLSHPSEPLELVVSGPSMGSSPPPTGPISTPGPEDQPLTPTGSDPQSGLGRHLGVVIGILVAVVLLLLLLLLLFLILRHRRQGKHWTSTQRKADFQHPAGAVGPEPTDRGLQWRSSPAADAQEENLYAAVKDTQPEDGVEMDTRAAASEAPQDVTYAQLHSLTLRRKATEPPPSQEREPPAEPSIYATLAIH

B1: 043c (antibody, V domains shown)
VH: QVQLQQSGAELAKPGASVKLSCKASGYTFTSYWMYWVKQRPGQGLEWIGHINPSSGYTKYNQKFKDKATLTADKSSSTAYMQLSSLTYEDSAVYYCARDPNWDNYWGQGTTLTVSS
VL: DIVMTQSHKFMSTSVGDRVSITCKASQDVSIAVAWYQQKPGQSPKLLIYSASYRYTGVPDRFTGSGSGTDFTFTISSVQAEDLAVYYCQQHYSTPYTFGGGTKLEIK
notes: Human IgG4 chimeric antibody with S228P mutation at the Fc region; also called chimeric antibody 043c; parental antibody 043c
Relative cytokine/chemokine level, B7-H1/PD-L1 (M2-T coculture 1:1, Luminex): 1.8 fold of Medium | Relative cytokine/chemokine level, CCL3/MIP-1 alpha (M2-T coculture 1:1, Luminex): 1.3 fold of Medium | Relative cytokine/chemokine level, CCL4/MIP-1 beta (M2-T coculture 1:1, Luminex): 2.4 fold of Medium | Relative cytokine/chemokine level, CCL5/RANTES (M2-T coculture 1:1, Luminex): 3.8 fold of Medium | Relative cytokine/chemokine level, CCL19/MIP-3 beta (M2-T coculture 1:1, Luminex): 0.3 fold of Medium | Relative cytokine/chemokine level, CCL20/MIP-3 alpha (M2-T coculture 1:1, Luminex): 2.2 fold of Medium | Relative cytokine/chemokine level, CXCL2/GRO beta (M2-T coculture 1:1, Luminex): 0.4 fold of Medium | Relative cytokine/chemokine level, FGF-basic (M2-T coculture 1:1, Luminex): 1.3 fold of Medium | Relative cytokine/chemokine level, G-CSF (M2-T coculture 1:1, Luminex): 2.3 fold of Medium | Relative cytokine/chemokine level, GM-CSF (M2-T coculture 1:1, Luminex): 1.6 fold of Medium | Relative cytokine/chemokine level, Granzyme B (M2-T coculture 1:1, Luminex): 7.6 fold of Medium | Relative cytokine/chemokine level, IFN-alpha (M2-T coculture 1:1, Luminex): 2.2 fold of Medium | Relative cytokine/chemokine level, IFN-gamma (M2-T coculture 1:1, Luminex): 4.1 fold of Medium | Relative cytokine/chemokine level, IL-1beta/IL-1F2 (M2-T coculture 1:1, Luminex): 1.9 fold of Medium | Relative cytokine/chemokine level, IL-2 (M2-T coculture 1:1, Luminex): 17.8 fold of Medium | Relative cytokine/chemokine level, IL-3 (M2-T coculture 1:1, Luminex): 3.6 fold of Medium | Relative cytokine/chemokine level, IL-4 (M2-T coculture 1:1, Luminex): 1.6 fold of Medium | Relative cytokine/chemokine level, IL-5 (M2-T coculture 1:1, Luminex): 2.3 fold of Medium | Relative cytokine/chemokine level, IL-6 (M2-T coculture 1:1, Luminex): 0.2 fold of Medium | Relative cytokine/chemokine level, IL-13 (M2-T coculture 1:1, Luminex): 1.8 fold of Medium | Relative cytokine/chemokine level, IL-15 (M2-T coculture 1:1, Luminex): 1.8 fold of Medium | Relative cytokine/chemokine level, PDGF-AA (M2-T coculture 1:1, Luminex): 4.3 fold of Medium | Relative cytokine/chemokine level, PDGF-AB/BB (M2-T coculture 1:1, Luminex): 1.5 fold of Medium | Relative cytokine/chemokine level, TGF-alpha (M2-T coculture 1:1, Luminex): 3.2 fold of Medium | Relative cytokine/chemokine level, TNF-alpha (M2-T coculture 1:1, Luminex): 4.8 fold of Medium | Relative cytokine/chemokine level, VEGF (M2-T coculture 1:1, Luminex): 0.3 fold of Medium

From US20260008847A1 (ELPISCIENCE SUZHOU BIOPHARMA, published 2026)
